Target: T1, MUC16 on OVCAR-3 cells (human, UniProt Q8WXI7 1-14507)
T1 construct: whole, on cells
Assay: FACS binding to OVCAR-3 cells

B1: BSMUC16/CD3-001 (bispecific antibody, V domains shown)
VH 1: QVQLVESGGGLVKPGGSLRLSCAASGFTFSNYYMSWVRQAPGKGLEWISYISGRGSTIFYADSVKGRITISRDNAKNSLFLQMNSLRAEDTAVYFCVKDRGGYSPYWGQGTLVTVSS
VH 2: EVQLVESGGGLVQPGRSLRLSCAASGFTFDDYSMHWVRQAPGKGLEWVSGISWNSGSKGYADSVKGRFTISRDNAKNSLYLQMNSLRAEDTALYYCAKYGSGYGKFYHYGLDVWGQGTTVTVSS
VL: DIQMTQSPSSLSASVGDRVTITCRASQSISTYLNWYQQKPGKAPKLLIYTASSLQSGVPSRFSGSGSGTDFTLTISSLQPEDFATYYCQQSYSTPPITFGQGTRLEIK
notes: It was biotinylated in the ELISA and 89Zr-DFO labelled in the PET study; also called REGN4018; ubamatamab
- binding result: binds
